For test [1], the target named is T1, Properdin (Homo sapiens, UniProt P27918).
T1 construct: purchased Calbiochem
As to the kind of experiment: Peptide inhibition assay: inhibition of the stabilization of the C3 convertase mediated by Properdin (haemolytic, membrane-bound C3bBb). Format: biochemical. Particulars: for % inhibition of the Properdin stabilization capacity: 50 ng Properdin pre-incubated with 10 μg peptide 2 h at room temperature, n=2 experiments; for dose dependence of inhibition of Properdin stabilization: different doses of peptides. The method, then:
(§1) The ability of patient' IgG to stabilize a pre-formed membrane bound C3bBb was measured with EAC3bBb generated by the incubation of EC3b with appropriate concentration of FB and FD. Briefly, IgG was partially purified from plasma by chromatography on DEAE-cellulose and subsequently quantified by nephelometry. DEAE eluate contains IgG, and also low levels of contaminants such as Properdin and Factor H. Sheep erythrocytes EAC34b were incubated in presence of FB (Complement Technology) and FD (Sigma) to form the alternative convertase C3bBb. The convertase was allowed to decay in EDTA-containing buffer in presence of 400 μg of patient' IgG. Lysis was developed by the addition of rat serum. C3NeF stabilization was measured as the percentage of the residual convertase compared to the reference control without decay. The cut-off for positive C3NeF was determined as the mean+2 sd of the C3NeF stabilization of IgG from 30 healthy individuals.
Different mixes of 50 ng of Properdin and 10 μg of peptides were incubated at room temperature for 2 hours with gentle shaking in EDTA-containing buffer. As a control, Properdin was incubated with the peptide's dilution buffer. Membrane-bound convertase was formed as in the C3bBb assay. During the convertase decay step, cells were incubated with the mix of FP and peptides. FP amount was chosen in order to obtain 50% of residual convertase after the decay. Residual convertase was measured and data were expressed as percentage of inhibition (percentage of residual convertase compared to the control without peptide).

In test [2] the test system is C3NeF (patient IgG). As to the kind of experiment: Peptide inhibition assay with patients' IgG: reduction of C3NeF stabilization of the C3bBb convertase. Format: biochemical, human. Particulars: for decrease of % stabilization of P1 IgG: 100 μg IgG from P1 (stabilizes only C3bBb) taken as 100%, peptides pre-incubated overnight, n=3 experiments. The protocol: as §1
The test was performed as described earlier, but 80 μg of peptides was utilized and the incubation of IgG and peptides was made at 4° C. overnight. IgG amount was determined depending on their stabilization capacity, in order to obtain 50% of residual convertase after the decay.
Membrane-bound convertase was formed as in the C3bBb assay. During the convertase decay step, cells were incubated with a fixed dose of Peptides (80 μg) and patient' IgG (amount determined by the concentration of IgG leading to 50% of residual convertase). The concentration of IgG applied in the test was chosen depending on their C3NeF activity.

Test [3] concerns the target T1, Properdin. As to the kind of experiment: ELISA, biotinylated peptides coated, binding of Properdin. The protocol: To investigate whether Properdin binds the peptides biotinylated peptides was coated onto ELISA plates and increased among of Properdin were incubated before adding anti human Properdin.
On the technique in general: In an ELISA, binding on a coated surface is turned into a signal by an enzyme label.

Test [4] deals with C3NeF (patient IgG). As to the kind of experiment: Peptide inhibition assay with patients' IgG: reduction of C3NeF stabilization of the C3bBb convertase. Format: biochemical, human. Particulars: P1 IgG.
Test [5] addresses T2, membrane bound C3bBb convertase (Homo sapiens, UniProt P00751+P01024).
T2 construct: EAC3bBb generated by the incubation of EC3b with appropriate concentration of FB and FD; incubated in presence of FB (Complement Technology) and FD (Sigma) to form the alternative convertase C3bBb; purchased Complement Technology (FB); Sigma (FD); host or cells: sheep erythrocytes coated with C3b
As to the kind of experiment: C3b erythrocyte based C3bBb convertase stabilization / competition assay. Format: biochemical. The protocol: as §1
Membrane-bound convertase was formed as in the C3bBb assay. During the convertase decay step, cells were incubated with FP alone at a fixed dose (800 ng); 4 different doses of IgG alone and a mix of both IgG and FP at the same concentration. […]
[…] Residual convertase was measured and data were expressed as percentage of inhibition (percentage of residual convertase compared to the control without peptide).

The target in test [6] is C3bBb alternative pathway C3 convertase (UniProt P01024). The test can be described thus: SPR (ProteOn XPR36), C3b on GLC chip, convertase formed with FB and FD, control IgG injected.
Chain of C3bBb alternative pathway C3 convertase (P01024 23-667 limits assumed, form in doubt, chain 1 of 3): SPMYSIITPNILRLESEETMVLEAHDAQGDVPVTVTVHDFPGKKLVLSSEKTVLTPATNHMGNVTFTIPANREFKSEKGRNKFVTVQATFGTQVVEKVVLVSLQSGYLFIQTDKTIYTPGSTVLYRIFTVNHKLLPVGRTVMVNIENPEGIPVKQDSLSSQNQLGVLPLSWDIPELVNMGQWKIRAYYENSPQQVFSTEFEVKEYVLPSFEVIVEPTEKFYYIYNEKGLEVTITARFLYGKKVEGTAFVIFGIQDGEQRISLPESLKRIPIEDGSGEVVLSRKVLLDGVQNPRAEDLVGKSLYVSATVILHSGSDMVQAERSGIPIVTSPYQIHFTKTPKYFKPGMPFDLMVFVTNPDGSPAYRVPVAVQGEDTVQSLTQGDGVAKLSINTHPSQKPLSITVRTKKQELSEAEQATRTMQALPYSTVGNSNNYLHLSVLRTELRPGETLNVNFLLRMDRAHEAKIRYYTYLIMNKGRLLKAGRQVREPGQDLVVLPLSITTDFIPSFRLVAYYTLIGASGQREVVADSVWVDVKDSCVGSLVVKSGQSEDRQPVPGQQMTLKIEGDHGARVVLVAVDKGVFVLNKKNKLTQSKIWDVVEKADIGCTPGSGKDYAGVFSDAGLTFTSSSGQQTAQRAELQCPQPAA
Chain of C3bBb alternative pathway C3 convertase (P01024 749-1663 limits assumed, form in doubt, chain 2 of 3): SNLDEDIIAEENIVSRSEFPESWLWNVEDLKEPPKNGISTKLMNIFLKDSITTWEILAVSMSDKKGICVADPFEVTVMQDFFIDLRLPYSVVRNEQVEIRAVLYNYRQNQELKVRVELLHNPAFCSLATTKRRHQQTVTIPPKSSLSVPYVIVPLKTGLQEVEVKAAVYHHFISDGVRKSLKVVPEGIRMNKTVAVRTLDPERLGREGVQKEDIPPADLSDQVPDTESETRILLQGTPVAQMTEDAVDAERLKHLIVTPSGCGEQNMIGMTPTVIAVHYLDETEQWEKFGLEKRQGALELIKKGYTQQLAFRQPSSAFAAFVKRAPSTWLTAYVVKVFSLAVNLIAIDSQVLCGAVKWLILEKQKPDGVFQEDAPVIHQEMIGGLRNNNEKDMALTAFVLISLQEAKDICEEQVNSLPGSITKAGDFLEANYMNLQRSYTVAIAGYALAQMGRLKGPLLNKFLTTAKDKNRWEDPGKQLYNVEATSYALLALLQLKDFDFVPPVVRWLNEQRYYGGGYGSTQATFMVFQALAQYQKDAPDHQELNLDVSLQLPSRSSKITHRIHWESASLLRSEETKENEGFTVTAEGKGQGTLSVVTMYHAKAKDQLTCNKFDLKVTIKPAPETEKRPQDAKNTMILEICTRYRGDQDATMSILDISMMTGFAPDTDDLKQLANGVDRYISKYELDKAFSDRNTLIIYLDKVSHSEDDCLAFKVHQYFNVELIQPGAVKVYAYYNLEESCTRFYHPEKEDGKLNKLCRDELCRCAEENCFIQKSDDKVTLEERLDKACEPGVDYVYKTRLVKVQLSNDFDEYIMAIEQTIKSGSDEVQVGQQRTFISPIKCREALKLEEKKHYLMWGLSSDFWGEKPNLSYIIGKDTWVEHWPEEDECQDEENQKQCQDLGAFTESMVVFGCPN
Chain of C3bBb alternative pathway C3 convertase (P00751 260-764 limits assumed, form in doubt, chain 3 of 3, further chain): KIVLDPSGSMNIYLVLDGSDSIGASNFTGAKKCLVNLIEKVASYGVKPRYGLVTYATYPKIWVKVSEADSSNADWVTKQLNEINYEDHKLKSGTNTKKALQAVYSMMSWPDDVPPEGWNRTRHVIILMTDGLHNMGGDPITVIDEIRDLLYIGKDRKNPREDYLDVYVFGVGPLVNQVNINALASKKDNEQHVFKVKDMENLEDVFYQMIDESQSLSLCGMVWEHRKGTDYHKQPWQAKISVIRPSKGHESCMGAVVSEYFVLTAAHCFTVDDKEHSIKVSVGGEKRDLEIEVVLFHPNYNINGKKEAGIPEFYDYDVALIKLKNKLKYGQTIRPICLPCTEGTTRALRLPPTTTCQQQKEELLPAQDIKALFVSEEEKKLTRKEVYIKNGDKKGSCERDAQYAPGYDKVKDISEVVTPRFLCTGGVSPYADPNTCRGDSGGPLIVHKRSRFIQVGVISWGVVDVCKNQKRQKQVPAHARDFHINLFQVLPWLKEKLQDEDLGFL
The target in test [7] is C3bBbP Properdin-stabilized alternative pathway C3 convertase (UniProt P01024). The test can be described thus: SPR (ProteOn XPR36), C3b on GLC chip, convertase formed with FB, FD and FP, control IgG injected.
Chain of C3bBbP Properdin-stabilized alternative pathway C3 convertase (P01024 23-1663 limits assumed, chain 1 of 3): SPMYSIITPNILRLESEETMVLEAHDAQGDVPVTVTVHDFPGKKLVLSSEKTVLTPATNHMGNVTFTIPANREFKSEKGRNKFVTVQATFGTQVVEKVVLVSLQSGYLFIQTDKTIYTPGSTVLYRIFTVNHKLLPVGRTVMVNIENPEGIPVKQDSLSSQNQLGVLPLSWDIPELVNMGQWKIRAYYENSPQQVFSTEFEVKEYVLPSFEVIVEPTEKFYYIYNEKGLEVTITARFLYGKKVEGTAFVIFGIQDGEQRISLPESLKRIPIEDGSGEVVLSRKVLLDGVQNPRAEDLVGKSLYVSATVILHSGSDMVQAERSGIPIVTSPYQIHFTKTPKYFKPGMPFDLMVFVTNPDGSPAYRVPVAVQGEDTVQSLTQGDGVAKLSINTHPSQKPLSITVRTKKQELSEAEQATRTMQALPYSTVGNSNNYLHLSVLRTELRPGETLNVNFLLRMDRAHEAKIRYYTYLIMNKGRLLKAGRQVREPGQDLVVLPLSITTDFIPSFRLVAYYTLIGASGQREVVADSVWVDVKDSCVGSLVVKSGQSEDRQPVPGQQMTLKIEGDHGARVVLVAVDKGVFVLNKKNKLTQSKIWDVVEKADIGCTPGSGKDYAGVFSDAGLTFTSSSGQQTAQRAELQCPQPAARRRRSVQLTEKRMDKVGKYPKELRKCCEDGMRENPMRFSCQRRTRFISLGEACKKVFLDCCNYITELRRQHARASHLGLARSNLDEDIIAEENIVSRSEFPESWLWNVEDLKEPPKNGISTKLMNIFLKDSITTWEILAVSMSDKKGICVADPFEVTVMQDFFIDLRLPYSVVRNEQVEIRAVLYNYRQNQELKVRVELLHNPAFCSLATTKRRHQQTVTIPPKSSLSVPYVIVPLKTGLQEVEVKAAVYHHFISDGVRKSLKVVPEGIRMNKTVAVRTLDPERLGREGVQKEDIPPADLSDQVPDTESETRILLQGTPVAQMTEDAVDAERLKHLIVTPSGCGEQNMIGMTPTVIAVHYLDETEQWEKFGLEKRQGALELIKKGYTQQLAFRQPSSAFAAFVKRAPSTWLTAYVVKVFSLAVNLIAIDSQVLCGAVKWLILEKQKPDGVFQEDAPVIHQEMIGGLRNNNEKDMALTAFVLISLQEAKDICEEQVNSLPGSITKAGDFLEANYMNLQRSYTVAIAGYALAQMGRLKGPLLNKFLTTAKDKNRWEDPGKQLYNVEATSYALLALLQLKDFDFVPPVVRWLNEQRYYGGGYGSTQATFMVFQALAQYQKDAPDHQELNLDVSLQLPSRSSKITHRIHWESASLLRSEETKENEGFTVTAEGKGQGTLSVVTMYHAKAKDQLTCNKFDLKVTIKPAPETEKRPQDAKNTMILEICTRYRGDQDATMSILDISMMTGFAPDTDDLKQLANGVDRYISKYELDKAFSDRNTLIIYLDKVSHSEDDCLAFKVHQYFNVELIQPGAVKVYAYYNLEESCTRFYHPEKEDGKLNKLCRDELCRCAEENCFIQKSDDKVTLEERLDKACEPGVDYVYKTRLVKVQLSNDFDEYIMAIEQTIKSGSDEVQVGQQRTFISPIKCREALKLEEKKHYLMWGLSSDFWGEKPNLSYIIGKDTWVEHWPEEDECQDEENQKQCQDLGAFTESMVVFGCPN
Chain of C3bBbP Properdin-stabilized alternative pathway C3 convertase (P00751 260-764 limits assumed, chain 2 of 3, further chain): as the sequence (P00751 260-764 limits assumed, form in doubt, chain 3 of 3, further chain) above
Chain of C3bBbP Properdin-stabilized alternative pathway C3 convertase (P27918 28-469 limits assumed, chain 3 of 3, further chain): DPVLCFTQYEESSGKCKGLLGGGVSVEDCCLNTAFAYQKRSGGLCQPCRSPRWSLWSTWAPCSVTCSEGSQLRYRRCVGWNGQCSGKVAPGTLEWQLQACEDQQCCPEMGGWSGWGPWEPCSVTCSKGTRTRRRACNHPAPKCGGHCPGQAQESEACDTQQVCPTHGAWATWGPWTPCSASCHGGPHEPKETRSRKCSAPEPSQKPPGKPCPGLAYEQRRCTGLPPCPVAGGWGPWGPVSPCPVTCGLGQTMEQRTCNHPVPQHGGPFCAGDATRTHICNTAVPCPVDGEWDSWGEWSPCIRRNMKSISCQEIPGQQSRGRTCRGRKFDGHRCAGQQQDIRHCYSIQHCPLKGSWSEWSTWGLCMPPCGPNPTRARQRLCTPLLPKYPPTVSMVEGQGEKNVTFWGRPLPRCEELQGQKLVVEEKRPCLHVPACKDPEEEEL
In test [8] the target is Properdin (human, UniProt P27918 28-469). The test can be described thus: cell-based or functional assay.
Chain of Properdin (human, UniProt P27918 28-469) (P27918 28-469 limits assumed): as the sequence (P27918 28-469 limits assumed, chain 3 of 3, further chain) above
Test [9] concerns the target Properdin like C3NeF (3 patients' Ig positive for the C3bBb and negative for the C3bBbP test, Example 2). The test can be described thus: cell-based or functional assay.
Test [10] has as its target 3 C3NeF samples positive for the C3bBb and negative for the C3bBbP test (Example 1). The test can be described thus: cell-based or functional assay.
Test [11] concerns the target 3 C3NeF samples positive in both the C3bBb and the C3bBbP tests (Example 1). As to the kind of experiment: cell-based or functional assay.
Test [12] deals with Properdin enhancer C3NeF (4 patients' Ig positive in both tests, Example 2). As to the kind of experiment: cell-based or functional assay.
Setting [13] is: in presence of Properdin_enhancer C3NeF.
Setting [14] is: in presence of Properdin_like C3NeF.

Where no end group is shown, it is not given here.

T1 sequence (P27918 28-469): as the sequence (P27918 28-469 limits assumed, chain 3 of 3, further chain) above
T2 sequence (P01024 23-667 limits assumed): as the sequence (P01024 23-667 limits assumed, form in doubt, chain 1 of 3) above
T2 sequence (P01024 749-1663 limits assumed): as the sequence (P01024 749-1663 limits assumed, form in doubt, chain 2 of 3) above
T2 sequence (P00751 260-764 limits assumed): as the sequence (P00751 260-764 limits assumed, form in doubt, chain 3 of 3, further chain) above

Regarding “G-EDEEPWEQITVV YPKIWV (GEDEEPWEQITVVYPKIWV; Synthetic pep2) [peptide 2, 3 parts of C3b and one part of the vWFA domain of Bb]”, in the test with Properdin [1], the “% inhibition of the Properdin stabilization capacity” value is given as “no effect”. Besides, the “decrease of % stabilization of P1 IgG” value in the test with C3NeF (patient IgG) [2] is “remained in the same range”.
Taken in the same sequence, the figures for “G-EERLDKACENNDSIGASNFTG (GEERLDKACENNDSIGASNFTG; Synthetic pep3) [peptide 3, residues of C3b and Bb, left side of the C3 convertase]” were “no effect” and “remained in the same range”.
In the case of “G-QDEENQKQCQDLGAFTESMVVFNIENLQKTVWD (GQDEENQKQCQDLGAFTESMVVFNIENLQKTVWD; N-terminal G; Synthetic pep1) [peptide 1, 22 residues of C3b (1616-1637) and 11 residues of Bb (308-318)]”, in the test with Properdin [3], the “capacity of peptides to bind Properdin” value was “binds”. The “dose dependence of inhibition of IgG stabilization” value with C3NeF (patient IgG) [4] is reported as “dose dependent”. Also, in the test with Properdin [1], the “dose dependence of inhibition of Properdin stabilization” value is listed as “dose-dependent”. Further, the “decrease of % stabilization of P1 IgG” value in the test on C3NeF (patient IgG) [2] was determined as 40%. For the same molecule, the C3NeF stabilization diminished in the test on C3NeF (patient IgG) [2] (3 C3NeF samples positive for the C3bBb and negative for the C3bBbP test) is given as 20-40%; in the test with C3NeF (patient IgG) [2] (3 C3NeF samples positive in both tests), 20-70%. Besides, the “percentage of inhibition vs control” value was “No significant difference” with C3NeF (patient IgG) [2] (setting [13]) and “significantly higher” in the test on C3NeF (patient IgG) [2] (setting [14]).
Take GAFTESMVVFLKHDEYNIE (Synthetic short1): in the test on C3NeF (patient IgG) [2] (Example 2, Properdin enhancer C3NeF (4 patients' Ig positive in both tests), 80 μg peptide), the “stabilization of the Convertase diminished” value was 40-80%. Moreover, the “percentage of inhibition vs control” value in the test on C3NeF (patient IgG) [2] (setting [13]) is “significantly higher”; with C3NeF (patient IgG) [2] (setting [14]), “No significant difference”.
“GENQKQCQDLGAFTESMVVFLKHDE (Synthetic pep1C3bExt)”: in the test with Properdin [1], the “% inhibition of the Properdin stabilization capacity” value was “no effect”. Further, the “percentage of inhibition vs control” value in the test on C3NeF (patient IgG) [2] (setting [13]) is on record as “No significant difference”; in the test on C3NeF (patient IgG) [2] (setting [14]), “significantly higher”.
With “Properdin: complement protein Properdin (Calbiochem), stabilizes the C3 convertase”, in [5] (800 ng of Properdin), the “residual C3bBb lytic site” value is reported as 60%. The “% of stabilization of C3 convertase” value in test [5] (Properdin incubated with peptides' excipient) was 40%.
Regarding “SMVVFLKHDEYNIENLQKTVWD (Synthetic pep1BbExt) [22 aminoacids comprising 5 aa on C3b and 17 from FB]”, in the test with Properdin [3], the “capacity of peptides to bind Properdin” value was “binds”. Moreover, the “dose dependence of inhibition of Properdin stabilization” value with Properdin [1] is “dose-dependent”. Also, the “percentage of inhibition vs control” value in the test on C3NeF (patient IgG) [2] (setting [13]) was “No significant difference”; with C3NeF (patient IgG) [2] (setting [14]), “significantly higher”.
As to “control IgG from healthy donors (antibody)”, the values for the IgG binding, residual (RU) in [6] and in test [7] were 1 RU and 13 RU, respectively.

B1: Peptide 1 (peptide)
peptide: GQDEENQKQCQDLGAFTESMVVFNIENLQKTVWD
modifications: also: biotinylated when coated in ELISA
Regarding B1, the “inhibition of the Properdin stabilization capacity” value with Properdin [8] is 80%. For the same molecule, the stabilization diminished in [9] lay within 20 to 40%. Moreover, the C3NeF stabilization diminished in test [10] lay in the range of 20 to 40%; in test [11] it was 20 to 70%.

B2: Pep1BbExt (peptide)
peptide: SMVVFLKHDEYNIENLQKTVWD
modifications: also: biotinylated when coated in ELISA
As to B2, the “inhibition of the Properdin stabilization capacity” value with Properdin [8] was determined as 80%. The same molecule came in with a stabilization diminished in test [9] of 20 to 40%.

B3: Pep1C3bExt (peptide)
peptide: GENQKQCQDLGAFTESMVVFLKHDE
The molecule B3 showed a stabilization diminished in [9] of 20 to 40%.

B4: short1 (peptide)
peptide: GAFTESMVVFLKHDEYNIE
In the case of B4, the stabilization diminished in test [12] was in the range of 40 to 80%.

These data come from patent publication US20180162911A1, “POLYPEPTIDES FOR THE DIAGNOSIS AND THE TREATMENT OF C3 NEF ASSOCIATED C3 GLOMERULOPATHY” (INSERM (INSTITUT NATIONAL DE LA SANTÉ ET DE LA RECHERCHE …, priority 2015, published 2018).
